Measured values reported in the Human Domainome abundance scans (Beltran et al. 2025).
± gives the uncertainty stated by the source.

B1: CD2-associated protein, residues 271 to 331; numbered along this chain, Q9Y5K6 (parent)
chain: KEYCRTLFAYEGTNEDELTFKEGEIIHLISKETGEAGWWRGELNGKEGVFPDNFAVQINEL

Variants of: B1
Assay: abundance fitness (aPCA) (normalised: wild type 0, dead -1); higher = more abundant; growth selection in yeast, the domain comes from the species named
Details: Homo sapiens

Row | Variant | abundance fitness
1 | KEYCRTLFAYEGTNEDELTFKEGEIIHLISKETGEAGAWRGELNGKEGVFPDNFAVQINEL [W38A] | -0.502 ± 0.076
2 | KEYCRTLFAYEGTNEDELTFKEGEIIHLISKETGEAGCWRGELNGKEGVFPDNFAVQINEL [W38C] | -0.345 ± 0.072
3 | KEYCRTLFAYEGTNEDELTFKEGEIIHLISKETGEAGDWRGELNGKEGVFPDNFAVQINEL [W38D] | -0.825 ± 0.18
4 | KEYCRTLFAYEGTNEDELTFKEGEIIHLISKETGEAGEWRGELNGKEGVFPDNFAVQINEL [W38E] | -0.781 ± 0.19
5 | KEYCRTLFAYEGTNEDELTFKEGEIIHLISKETGEAGFWRGELNGKEGVFPDNFAVQINEL [W38F] | -0.145 ± 0.12
6 | KEYCRTLFAYEGTNEDELTFKEGEIIHLISKETGEAGGWRGELNGKEGVFPDNFAVQINEL [W38G] | -0.559 ± 0.13
7 | KEYCRTLFAYEGTNEDELTFKEGEIIHLISKETGEAGHWRGELNGKEGVFPDNFAVQINEL [W38H] | -0.349 ± 0.12
8 | KEYCRTLFAYEGTNEDELTFKEGEIIHLISKETGEAGIWRGELNGKEGVFPDNFAVQINEL [W38I] | -0.361 ± 0.075
9 | KEYCRTLFAYEGTNEDELTFKEGEIIHLISKETGEAGKWRGELNGKEGVFPDNFAVQINEL [W38K] | -0.034 ± 0.077
10 | KEYCRTLFAYEGTNEDELTFKEGEIIHLISKETGEAGMWRGELNGKEGVFPDNFAVQINEL [W38M] | -0.17 ± 0.11
11 | KEYCRTLFAYEGTNEDELTFKEGEIIHLISKETGEAGNWRGELNGKEGVFPDNFAVQINEL [W38N] | -0.787 ± 0.13
12 | KEYCRTLFAYEGTNEDELTFKEGEIIHLISKETGEAGPWRGELNGKEGVFPDNFAVQINEL [W38P] | -0.729 ± 0.1
13 | KEYCRTLFAYEGTNEDELTFKEGEIIHLISKETGEAGQWRGELNGKEGVFPDNFAVQINEL [W38Q] | -0.3 ± 0.1
14 | KEYCRTLFAYEGTNEDELTFKEGEIIHLISKETGEAGRWRGELNGKEGVFPDNFAVQINEL [W38R] | -0.216 ± 0.062
15 | KEYCRTLFAYEGTNEDELTFKEGEIIHLISKETGEAGSWRGELNGKEGVFPDNFAVQINEL [W38S] | -0.675 ± 0.075
16 | KEYCRTLFAYEGTNEDELTFKEGEIIHLISKETGEAGTWRGELNGKEGVFPDNFAVQINEL [W38T] | -0.404 ± 0.075
17 | KEYCRTLFAYEGTNEDELTFKEGEIIHLISKETGEAGVWRGELNGKEGVFPDNFAVQINEL [W38V] | -0.249 ± 0.069
18 | KEYCRTLFAYEGTNEDELTFKEGEIIHLISKETGEAGYWRGELNGKEGVFPDNFAVQINEL [W38Y] | -0.043 ± 0.079
19 | KEYCRTLFAYEGTNEDELTFKEGEIIHLISKETGEAGWARGELNGKEGVFPDNFAVQINEL [W39A] | -0.328 ± 0.098
20 | KEYCRTLFAYEGTNEDELTFKEGEIIHLISKETGEAGWCRGELNGKEGVFPDNFAVQINEL [W39C] | -0.48 ± 0.12
21 | KEYCRTLFAYEGTNEDELTFKEGEIIHLISKETGEAGWDRGELNGKEGVFPDNFAVQINEL [W39D] | -0.941 ± 0.47
22 | KEYCRTLFAYEGTNEDELTFKEGEIIHLISKETGEAGWERGELNGKEGVFPDNFAVQINEL [W39E] | -0.663 ± 0.12

Row | Variant | abundance fitness
23 | KEYCRTLFAYEGTNEDELTFKEGEIIHLISKETGEAGWFRGELNGKEGVFPDNFAVQINEL [W39F] | -0.513 ± 0.09
24 | KEYCRTLFAYEGTNEDELTFKEGEIIHLISKETGEAGWGRGELNGKEGVFPDNFAVQINEL [W39G] | -0.615 ± 0.082
25 | KEYCRTLFAYEGTNEDELTFKEGEIIHLISKETGEAGWHRGELNGKEGVFPDNFAVQINEL [W39H] | -0.623 ± 0.14
26 | KEYCRTLFAYEGTNEDELTFKEGEIIHLISKETGEAGWIRGELNGKEGVFPDNFAVQINEL [W39I] | -0.851 ± 0.17
27 | KEYCRTLFAYEGTNEDELTFKEGEIIHLISKETGEAGWKRGELNGKEGVFPDNFAVQINEL [W39K] | -0.536 ± 0.13
28 | KEYCRTLFAYEGTNEDELTFKEGEIIHLISKETGEAGWLRGELNGKEGVFPDNFAVQINEL [W39L] | -0.532 ± 0.11
29 | KEYCRTLFAYEGTNEDELTFKEGEIIHLISKETGEAGWMRGELNGKEGVFPDNFAVQINEL [W39M] | -0.278 ± 0.1
30 | KEYCRTLFAYEGTNEDELTFKEGEIIHLISKETGEAGWNRGELNGKEGVFPDNFAVQINEL [W39N] | -0.734 ± 0.14
31 | KEYCRTLFAYEGTNEDELTFKEGEIIHLISKETGEAGWPRGELNGKEGVFPDNFAVQINEL [W39P] | -0.724 ± 0.2
32 | KEYCRTLFAYEGTNEDELTFKEGEIIHLISKETGEAGWQRGELNGKEGVFPDNFAVQINEL [W39Q] | -0.661 ± 0.2
33 | KEYCRTLFAYEGTNEDELTFKEGEIIHLISKETGEAGWRRGELNGKEGVFPDNFAVQINEL [W39R] | -0.547 ± 0.06
34 | KEYCRTLFAYEGTNEDELTFKEGEIIHLISKETGEAGWTRGELNGKEGVFPDNFAVQINEL [W39T] | -0.696 ± 0.1
35 | KEYCRTLFAYEGTNEDELTFKEGEIIHLISKETGEAGWVRGELNGKEGVFPDNFAVQINEL [W39V] | -0.519 ± 0.087
36 | KEYCRTLFAYEGTNEDELTFKEGEIIHLISKETGEAGWYRGELNGKEGVFPDNFAVQINEL [W39Y] | -0.579 ± 0.11
37 | KEYCRTLFAYEGTNEDELTFKEGEIIHLISKETGEAGWWAGELNGKEGVFPDNFAVQINEL [R40A] | -0.426 ± 0.065
38 | KEYCRTLFAYEGTNEDELTFKEGEIIHLISKETGEAGWWCGELNGKEGVFPDNFAVQINEL [R40C] | -0.332 ± 0.07
39 | KEYCRTLFAYEGTNEDELTFKEGEIIHLISKETGEAGWWDGELNGKEGVFPDNFAVQINEL [R40D] | -0.546 ± 0.099
40 | KEYCRTLFAYEGTNEDELTFKEGEIIHLISKETGEAGWWEGELNGKEGVFPDNFAVQINEL [R40E] | -0.604 ± 0.09
41 | KEYCRTLFAYEGTNEDELTFKEGEIIHLISKETGEAGWWFGELNGKEGVFPDNFAVQINEL [R40F] | -0.16 ± 0.091
42 | KEYCRTLFAYEGTNEDELTFKEGEIIHLISKETGEAGWWHGELNGKEGVFPDNFAVQINEL [R40H] | -0.296 ± 0.09
43 | KEYCRTLFAYEGTNEDELTFKEGEIIHLISKETGEAGWWIGELNGKEGVFPDNFAVQINEL [R40I] | -0.547 ± 0.11
44 | KEYCRTLFAYEGTNEDELTFKEGEIIHLISKETGEAGWWKGELNGKEGVFPDNFAVQINEL [R40K] | 0.014 ± 0.066
